T1: TwinStrep-tagged UPF1 CH domain (residues 110-282) (human, UniProt Q92900 110-282)
T1 sequence (looked up): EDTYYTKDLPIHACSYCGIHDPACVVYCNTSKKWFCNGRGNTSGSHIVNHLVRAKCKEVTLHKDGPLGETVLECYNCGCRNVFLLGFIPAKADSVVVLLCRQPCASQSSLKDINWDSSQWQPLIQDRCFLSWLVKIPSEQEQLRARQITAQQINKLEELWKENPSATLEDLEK


Molecular target: T1, TwinStrep-tagged UPF1 CH domain …
Assay: ITC

| Kd | Binder |
| --- | --- |
| 4280 ± 250 nM | EKQESKNPKQELRGRGRGILILPAHTTLSVNSAGSPESAPL (domain or fragment, human, UniProt Q86US8 390-430, looked up) [MBP-tagged SMG6 residues 390-430 (SMG6 CH-binding domain)] |
| 1460 ± 250 nM | MBP-tagged UPF2 residues 1095-1250 (UPF2 CH-binding domain) (domain or fragment, human, UniProt Q9HAU5 1095-1250, looked up) VMIKGGGLKHVPCVEDEDFIQALDKMMLENLQQRSGESVKVHQLDVAIPLHLKSQLRKGPPLGGGEGEAESADTMPFVMLTRKGNKQQFKILNVPMSSQLAANHWNQQQAEQEERMRMKKLTLDINERQEQEDYQEMLQSLAQRPAPANTNRERRP |

Source: article PMC11162806 (Nucleic Acids Research, 2024)
